Earlier results in publication PMC5245780.
pKd: −log10 of the molar value.

Molecular target: Hax1 isoform 1 (Rattus norvegicus) (UniProt Q7TSE9)

pKd: 8.42
Substance: Hax1 isoform 1 (from UniProt Q7TSE9)
